The values below come from publication PMC5643242 (The FEBS journal, 2017).

Read-outs that look alike come from different tables or passages of the source.

As usually defined, the kon is a measure of how fast the partners come together. By koff is commonly meant a measure of how fast the partners let go of each other.

Common to all, as to test: stopped-flow fluorescence
Test [1] addresses T1, Cdc42 GTPase (residues 1-179), loaded with mantGppNHp (human, UniProt P60953 1-179).
Test [2] has as its target T1, Cdc42 GTPase (residues 1-179), loaded …. The source holds these as a separate data set.
Test [3] has the same target. The source holds these as a separate data set.
Test [4] shares this target. The source holds these as a separate data set.
Test [5] shares this target. The source holds these as a separate data set.

T1 sequence (P60953 1-179): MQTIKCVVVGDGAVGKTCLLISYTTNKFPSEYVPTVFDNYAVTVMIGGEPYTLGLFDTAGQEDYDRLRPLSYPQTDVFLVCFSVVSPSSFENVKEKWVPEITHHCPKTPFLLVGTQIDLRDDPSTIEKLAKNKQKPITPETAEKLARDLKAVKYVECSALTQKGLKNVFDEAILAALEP

B1: Wiskott-Aldrich Syndrome protein (WASP) GTPase binding domain (GBD) construct, residues 154-322 (domain or fragment, human, UniProt P42768 154-322, looked up)
chain: GDRRQLPPPPTPANEERRGGLPPLPLHPGGDQGGPPVGPLSLGLATVDIQNPDITSSRYRGLPAPGPSPADKKRSGKKKISKADIGAPSGFKHVSHVGWDPQNGFDVNNLDPDLRSLFSRAGISEAQLTDAETSKLIYDFIEDQGGLEAVRQEMRRQEPLPPPPPPSRG
For B1, in test [1], the “fold decrease of ka at 2 M urea against no urea” value came to 3.4 fold. Also, the kon in test [2] is 1.75e+07 M⁻¹ s⁻¹; in test [3] it was 1.63e+07 M⁻¹ s⁻¹; in test [4] it was 2.07e+07 M⁻¹ s⁻¹; in test [5], 1.2e+07 M⁻¹ s⁻¹. The molecule further came in with a koff in test [5] of 4.1 ± 1.7 s⁻¹.
